The values below come from the DeepSol protein solubility set.

This series is described as follows: soluble on expression in E. coli; label from the status in PepcDB or PDB records.
Consider “MKHEWRKFEKELYGVKAKPIFLEVEEQRFITIKGKGNPNDQDFSNRVSALYALAYGIKMAYKQAMKTEQDDRAVTDFAVYPLEGLWQQAKDAKEDTLEKDKLSYTIMIRQPEFITKELVDQALDRVKIKKPNSFYESISFESIKDGKCIQVLHIGSYDDEPQSFAKMDAFAKEHGLKRSSDIHREIYLSNAQRTEKSKLKTILRYQVEEK”, for which the “soluble on expression in E. coli” value was “not soluble”. The result for “MKHLPQLEGVSVGLEGEAVSLFWGEIKEEERQEIYECAKALVPWRKGPFWVGDFLIDSEWVSAKKYALLEPHFDLCNKDVADIGCNNGYYMFRMWGQKPKSLTGFDPSPLCRTQFDFINHFIQAPIRFELLGVEHLEGYGKLFDVIFCLGVLYHRSDPIQTLKSLYKGLAKGGELLLDTLMIEGEEEVALTPKDRYAKMSNVYFIPTFKALSHWLHRAGFERVEKLEIAKTGLDEQRKTEWINSQSLEDFLDPCSHDRTIEGYPAPRRIYVKAYKGA” reads “not soluble”; that for “MKHSGYLWAIGKNVWKRWKKRFFVLVQVSQYTFAMCSYREKKAEPQELLQLDGYTVDYTDPQPGLEGGRAFFNAVKEGDTVIFASDDEQDRILWVQAMYRATGQSHKPVPPTQ”, “soluble”. To “MKHTLPDLPFDYADLEPVISHEIMQLHHQKHHATYVNNLNQIEEKLHEAVSKGNLKEAIALQPALKFNGGGHINHSIFWTNLAKDGGEPSKELMDTIKRDFGSLDNLQKRLSDITIAVQGSGWGWLGYCKKDKILKIATCANQDPLEGMVPLFGIDVWEHAYYLQYKNVRPDYVHAIWKIANWKNISERFANARQ” belongs “soluble”; to “MKIALIGATGMAGSRILEELVSRGHYVKALARDTHKVADTERVMAVDIDLNDHDALVEALRGQDAVISAVRFHGLDANALFNAIHDSKVKRYLVVGGAGSLHVPHQNTRVLDSEDFPEAYKPEAEAAAHFLDKLKEKDDLDWTFISPSAEFGPGKRTGEFRLGKDELLVGEEGSKISAEDFAVALADELEHNNHIQQRFTVGYLEHHHHHH”, “not soluble”. Consider “MKIAMLGSLGNINRIVVPKLVQAGHDVTVISTSPKRQASIEAIGAHAAIGTMTDVDFLSTTFTDKDVVYLMLSGGIGDDPFEGAVAQAKIWKQAIENAGVTNVVNLSSIGADADEVAGSLHAYNLIEHELRQLDGVNLAFVRPTGFYANLFGNLATIKAEHKIYSSTPAASAQKYVAPEDIASVVYPLIDHTPAGITVKYAFSDTFTGDQFVADLRDALNMPDLQWVQISDEQYQANLTNHGVPVKIAASLVQTSRYQREPEGLYADLNASDTSAGQVKLADFVRTFVVAYNSEGGYQSHTIAD”, for which the “soluble on expression in E. coli” value was “not soluble”. To “MKIDTNFLCDLWMALFQFSNDENINEKECTALVDIMSLVEKVLVLKLQDDVPNIVKILAVLTDFGDSELPHSMDSLLRAYEPDLDNPIKKVA” belongs “not soluble”; to “MKIGIFDSGAGGMTVLKAIREAYPNVDVVYLGDTARVPYGIRSKETIVRYSKECANFLKDKGVDLLVVACNTASAYALEELKREFPFPVFGVIEPGVKEALRKSKTKRIGVIGTQATIKSGAYQEALKRAGAEVYSKACPLFVPLVEEGMIEGEIPKKVVEHYLKDFKGKVDTLILGCTHYPLLKREIQNFLEGVNVIDSSRATAKSLKDFVKNEGSGSLELYFTDRSQNLERLIKLILGEEVEPKITSEVFVL”, “soluble”; to “MKIGLFYGSSTCYTEMTAEKIRAILGEELVDIHNVKESPLTLMSDYDLLLLGISTWDFGEIQEDWSAVWDHIGGVSLKNKYVALFGLGDQEGYGEWYLDAMGLLHDQIKKSGANLLGYWPNQGYHFEASKALTEDGSHFVGLALDEDSQYDLSDERIATWVEQVLTEYHDAI”, “not soluble”.

Take “MKIKPVKVESIENPKRFLNSRLLTKIEVEEAIEKALKQLYINIDYFGEEYPTPATFNNIYKVMDNTEWTNGFWTGCLWLAYEYNQDKKLKNIAHKNVLSFLNRINNRIALDHHDLGFLYTPSCTAEYRINGDVKALEATIKAADKLMERYQEKGGFIQAWGELGYKEHYRLIIDCLLNIQLLFFAYEQTGDEKYRQVAVNHFYASANNVVRDDSSAFHTFYFDPETGEPLKGVTRQGYSDESSWARGQAWGIYGIPLSYRKMKDYQQIILFKGMTNYFLNRLPEDKVSYWDLIFTDGSGQPRDTSATATAVCGIHEMLKYLPEVDPDKETYKYAMHTMLRSLIEQYSNNELIAGRPLLLHGVYSWHSGKGVDEGNIWGDYYYLEALIRFYKDWELYW”: the “soluble on expression in E. coli” value was “soluble”.
